In ChEMBL document CHEMBL1221251, “Factorizing the role of a critical leucine residue in the binding of substrate to human 20alpha-hydroxysteroid dehydrogenase (AKR1C1): molecular modeling and kinetic studies of the Leu308Val mutant enzyme” (Bioorg Med Chem Lett, 2010) one finds Ratio, kcat/Km and Km data, which are given here for five molecules.

As a reminder, the kcat/Km is the turnover number divided by the Michaelis constant.

For series [1], the system named is Aldo-keto reductase family 1 member C1 (Homo sapiens), Q04828 [UNDEFINED MUTATION]. Description: Ratio of Kcat/Km for human recombinant AKR1C1 Leu308Ala mutant to Kcat/Km for human recombinant wild type AKR1C1.
Series [2] shares this test system. Description: Ratio of Kcat/Km for human recombinant AKR1C1 Leu308Val mutant to Kcat/Km for human recombinant wild type AKR1C1.
Series [3] has the same test system. The experiment in a line: Ratio of Km for human recombinant AKR1C1 Leu308Ala mutant to Km for human recombinant wild type AKR1C1.
The test system is the same in series [4]. Description: Ratio of Km for human recombinant AKR1C1 Leu308Val mutant to Km for human recombinant wild type AKR1C1.
In series [5] the target is T1, Aldo-keto reductase family 1 member C1 (Homo sapiens) (UniProt Q04828). The experiment in a line: Ratio of kcat/km for human recombinant wild type AKR1C1 expressed in Escherichia coli JM109 after 15 mins.
Substrate in series [6]: C[C@@H](O)[C@H]1CC[C@H]2[C@@H]3CC[C@H]4C[C@H](O)CC[C@]4(C)[C@H]3CC[C@]12C
Description: (§1) Activity at human recombinant wild type AKR1C1 expressed in Escherichia coli JM109 after 15 mins.

Substrate in series [7]: CC(=O)[C@H]1CC[C@H]2[C@@H]3CC[C@@H]4C[C@H](O)CC[C@]4(C)[C@H]3CC[C@]12C
The description is as §1.

Series [8] has as its target T1, Aldo-keto reductase family 1 member C1 …. Description: Activity at human recombinant wild type AKR1C1 expressed in Escherichia coli JM109 after 15 mins.
Substrate in series [9]: C[C@@H](O)[C@H]1CC[C@H]2[C@@H]3CC[C@H]4C[C@H](O)CC[C@]4(C)[C@H]3CC[C@]12C
The experiment in a line: (§2) Ratio of kcat/km for human recombinant wild type AKR1C1 expressed in Escherichia coli JM109 after 15 mins.

Substrate in series [10]: CC(=O)[C@H]1CC[C@H]2[C@@H]3CC[C@@H]4C[C@H](O)CC[C@]4(C)[C@H]3CC[C@]12C
Described as §2.

Substrate in series [11]: C[C@@H](O)[C@H]1CC[C@H]2[C@@H]3CC[C@H]4C[C@H](O)CC[C@]4(C)[C@H]3CC[C@]12C
Description: (§3) Ratio of kcat/km for human recombinant AKR1C1 Leu308Val mutant expressed in Escherichia coli JM109 after 15 mins.

Substrate in series [12]: CC(=O)[C@H]1CC[C@H]2[C@@H]3CC[C@@H]4C[C@H](O)CC[C@]4(C)[C@H]3CC[C@]12C
Described as §3.

Substrate in series [13]: C[C@@H](O)[C@H]1CC[C@H]2[C@@H]3CC[C@H]4C[C@H](O)CC[C@]4(C)[C@H]3CC[C@]12C
Description: (§4) Activity at human recombinant AKR1C1 Leu308Val mutant expressed in Escherichia coli JM109 after 15 mins.

Substrate in series [14]: CC(=O)[C@H]1CC[C@H]2[C@@H]3CC[C@@H]4C[C@H](O)CC[C@]4(C)[C@H]3CC[C@]12C
The series is described as §4.

Residue numbers refer to the chain shown, from its start. Names may count otherwise.

Consider `O[C@H]1CCCc2ccccc21`, for which the Ratio in [1] was found to be 0.01; in series [2], 0.2; in [3] it was 67; in [4] it was 2.
Turning to `CC(=O)[C@H]1CC[C@H]2[C@@H]3CC[C@@H]4C[C@H](O)CC[C@]4(C)[C@H]3CC[C@]12C`, the Ratio in [2] was found to be 0.2; in series [4] it was 2.
The corresponding values for `C[C@@H](O)[C@H]1CC[C@H]2[C@@H]3CC[C@H]4C[C@H](O)CC[C@]4(C)[C@H]3CC[C@]12C` are 7 and 0.4.

B1: Aldo-keto reductase family 1 member C1 (Homo sapiens), Q04828 (protein)
chain: MDSKYQCVKLNDGHFMPVLGFGTYAPAEVPKSKALEATKLAIEAGFRHIDSAHLYNNEEQVGLAIRSKIADGSVKREDIFYTSKLWCNSHRPELVRPALERSLKNLQLDYVDLYLIHFPVSVKPGEEVIPKDENGKILFDTVDLCATWEAVEKCKDAGLAKSIGVSNFNRRQLEMILNKPGLKYKPVCNQVECHPYFNQRKLLDFCKSKDIVLVAYSALGSHREEPWVDPNSPVLLEDPVLCALAKKHKRTPALIALRYQLQRGVVVLAKSYNEQRIRQNVQVFEFQLTSEEMKAIDGLNRNVRYLTLDIFAGPPNYPFSDEY
Consider B1, for which the kcat/Km in series [5] was determined as 61700 M⁻¹ s⁻¹; in series [9], 40000 M⁻¹ s⁻¹; in [10] it was 61700 M⁻¹ s⁻¹. The results for the Km in series [6], in series [7] and in [8] were 0.9 µM⁻¹, 7 µM⁻¹ and 7 µM⁻¹, respectively.

B2: Aldo-keto reductase family 1 member C1 (Homo sapiens), Q04828 L308V (protein)
chain: B1 chain with L308V
Take B2: the kcat/Km worked out at 267000 M⁻¹ s⁻¹ in series [11] and 13300 M⁻¹ s⁻¹ in series [12]. Besides, the Km in series [13] is 0.4 µM⁻¹; in [14], 16 µM⁻¹.
